Data reported in patent publication US20040248211A1 (published 2004).

Columns and labels:
[1] = molecular target: T1, VLA-4 (alpha4/beta1) on cells (UniProt P13612 34-1032; P05556 21-798, limits assumed); assay: adhesion of transfected COS cells to immobilized chimera (20 ug/ml coat)
T1 construct: whole, on cells; On Jurkat cells, T cells and COS cells transfected with alpha4 and beta1 cDNAs; also called α4/β1; α4β1

[2] = molecular target: CD18-independent counter-receptor for ICAM-R on Jurkat cells; assay: Jurkat cell adhesion to plate-bound shICAM-R, peptide 1-2 mg/ml
[3] = molecular target: T2, LFA-1 (CD11a/CD18) on cells (human, UniProt P20701 26-1170; P05107 23-769); assay: JY cell adhesion to plate-bound chimera
T2 construct: whole, on cells; On SKW3, JY, HL-60 cells, neutrophils and transfected CHO and COS cells; also called CD18/CD11a
T2 sequence (P20701 26-1170, chain 1 of 2): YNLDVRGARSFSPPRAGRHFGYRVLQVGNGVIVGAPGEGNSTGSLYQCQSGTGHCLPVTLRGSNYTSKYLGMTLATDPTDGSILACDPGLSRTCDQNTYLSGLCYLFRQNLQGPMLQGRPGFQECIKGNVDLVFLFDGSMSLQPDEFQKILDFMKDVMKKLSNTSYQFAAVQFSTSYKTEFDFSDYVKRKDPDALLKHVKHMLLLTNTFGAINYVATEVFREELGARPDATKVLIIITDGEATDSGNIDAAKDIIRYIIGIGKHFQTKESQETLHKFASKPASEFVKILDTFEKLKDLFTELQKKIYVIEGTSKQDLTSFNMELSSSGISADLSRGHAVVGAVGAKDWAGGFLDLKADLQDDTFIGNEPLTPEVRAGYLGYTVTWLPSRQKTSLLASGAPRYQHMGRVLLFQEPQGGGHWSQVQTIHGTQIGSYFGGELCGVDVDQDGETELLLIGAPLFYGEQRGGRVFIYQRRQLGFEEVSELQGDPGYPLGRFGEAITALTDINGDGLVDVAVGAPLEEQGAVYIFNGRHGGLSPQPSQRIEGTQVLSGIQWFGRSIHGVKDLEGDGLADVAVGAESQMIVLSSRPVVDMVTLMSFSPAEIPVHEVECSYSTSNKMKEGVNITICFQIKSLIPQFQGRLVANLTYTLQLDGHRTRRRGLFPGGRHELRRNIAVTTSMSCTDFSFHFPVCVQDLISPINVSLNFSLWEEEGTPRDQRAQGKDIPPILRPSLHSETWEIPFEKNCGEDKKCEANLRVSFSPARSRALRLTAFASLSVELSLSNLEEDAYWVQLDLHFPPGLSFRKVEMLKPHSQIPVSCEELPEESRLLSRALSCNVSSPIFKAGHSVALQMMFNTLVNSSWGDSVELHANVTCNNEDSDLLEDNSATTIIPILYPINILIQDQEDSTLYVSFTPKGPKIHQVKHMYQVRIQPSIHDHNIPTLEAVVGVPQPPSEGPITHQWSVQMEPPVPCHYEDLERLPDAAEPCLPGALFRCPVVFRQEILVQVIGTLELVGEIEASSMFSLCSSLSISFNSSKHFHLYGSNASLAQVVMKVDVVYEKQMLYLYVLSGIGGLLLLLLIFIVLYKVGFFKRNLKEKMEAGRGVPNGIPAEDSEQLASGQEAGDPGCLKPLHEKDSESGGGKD
T2 sequence (P05107 23-769, chain 2 of 2): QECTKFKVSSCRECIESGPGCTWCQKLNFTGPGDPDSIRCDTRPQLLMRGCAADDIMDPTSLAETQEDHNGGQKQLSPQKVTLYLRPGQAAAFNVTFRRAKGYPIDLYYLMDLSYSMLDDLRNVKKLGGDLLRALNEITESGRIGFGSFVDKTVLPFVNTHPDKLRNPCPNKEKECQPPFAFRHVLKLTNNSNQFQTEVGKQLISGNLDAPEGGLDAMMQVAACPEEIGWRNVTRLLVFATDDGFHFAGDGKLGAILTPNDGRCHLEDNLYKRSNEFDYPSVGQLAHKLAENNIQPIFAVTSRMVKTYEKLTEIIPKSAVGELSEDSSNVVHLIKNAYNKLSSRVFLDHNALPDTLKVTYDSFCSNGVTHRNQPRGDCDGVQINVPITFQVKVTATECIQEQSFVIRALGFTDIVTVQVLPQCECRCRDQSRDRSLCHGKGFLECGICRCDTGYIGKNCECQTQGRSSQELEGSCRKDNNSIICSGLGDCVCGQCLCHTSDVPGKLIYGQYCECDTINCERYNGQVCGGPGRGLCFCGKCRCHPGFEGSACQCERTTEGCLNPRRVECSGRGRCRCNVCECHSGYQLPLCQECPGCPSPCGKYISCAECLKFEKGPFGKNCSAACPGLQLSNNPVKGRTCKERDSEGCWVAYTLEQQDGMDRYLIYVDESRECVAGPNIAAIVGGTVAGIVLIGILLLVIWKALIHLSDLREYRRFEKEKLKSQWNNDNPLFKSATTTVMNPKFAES

| Binder | % Inhibition of cell binding to shICAM-R [2] | also measured |
| --- | --- | --- |
| ICAM-1/IgG chimera (Fc fusion, UniProt P05362 28-480, looked up, not shown: a dimerising Fc or GST, also called ICAM-1/Ig fusion protein) QTSVSPSKVILPRGGSVLVTCSTSCDQPKLLGIETPLPKKELLLPGNNRKVYELSNVQEDSQPMCYSNCPDGQSTAKTFLTVYWTPERVELAPLPSWQPVGKNLTLRCQVEGGAPRANLTVVLLRGEKELKREPAVGEPAEVTTTVLVRRDHHGANFSCRTELDLRPQGLELFENTSAPYQLQTFVLPATPPQLVSPRVLEVDTQGTVVCSLDGLFPVSEAQVHLALGDQRLNPTVTYGNDSFSAKASVSVTAEDEGTQRLTCAVILGNQSQETLQTVTIYSFPAPNVILTKPEVSEGTEVTVKCEAHPRAKVTLNGVPAQPLGPRAQLLLKATPEDNGRSFSCSATLEVAGQLIHKNQTRELRVLYGPRLDERDCPGNWTWPENSQQTPMCQAWGNPLPELKCLKDGTFPLPIGESVTVTRDLEGTYLCRARSTQGEVTRKVTVNVLSPRYE | – | binding result [1]: no binding |
| GDQRL (also called ICAM-1 228-232) [ICAM-1 domain 3 peptide GDQRL, residues 228-232] | 22% | – |
| NGSQI (also called ICAM-R 72-76) [ICAM-R domain 1 peptide NGSQI, residues 72-76] | 17% | – |
| DGQST (also called ICAM-1 70-74) [ICAM-1 domain 1 peptide DGQST, residues 70-74] | 9% | – |
| GERREA (also called ICAM-R 271-276) [ICAM-R domain 3 peptide, residues 271-276] | 11% | – |
| ICAM-R/IgG chimera with domain 3 deleted (Fc fusion, also called domain 3 deletion chimera; not shown: human IgG1 hinge, CH2 and CH3) QEFLLRVEPQNPVLSAGGSLFVNCSTDCPSSEKIALETSLSKELVASGMGWAAFNLSNVTGNSRILCSVYCNGSQITGSSNITVYGLPERVELAPLPPWQPVGQNFTLRCQVEGGSPRTSLTVVLLRWEEELSRQPAVEEPAEVTATVLASRDDHGAPFSCRTELDMQPQGLGLFVNTSAPRQLRTFLGPIVNLSEPTAHEGSTVTVSCMAGARVQVTLDGVPAAAPGQTAQLQLNATESDDGRSFFCSATLEVDGEFLHRNSSVQLRVLYGPKIDRATCPQHLKWKDKTRHVLQCQARGNPYPELRCLKEGSSREVPVGIPFFVNVTHNGTYQCQASSSRGKYTLVVVMDIEAFSSH | – | binding result [3]: binds |
| GDQML (also called ICAM-R 230-234) [ICAM-R domain 3 peptide GDQML, residues 230-234] | 36% | – |
| EKIALET (also called ICAM-R 32-38) [ICAM-R domain 1 peptide, residues 32-38] | 10% | – |
